As usually defined, the IC50 is the midpoint of a concentration-inhibition curve. Low values mean higher potency, high ones lower potency.

For assay [1], the target named is FcγRIIaH131 (cell surface CD32a, cells bearing the labeled receptor, TR-FRET) (UniProt P12318). The experiment in a line: TR-FRET competition (CisBio) on cells bearing the labeled receptor; competitor: labeled antibody. In general terms: Time-resolved FRET reads energy transfer from a long-lived donor to a nearby acceptor.
The target in assay [2] is FcγRIIIaV158 (on cells bearing the labeled receptor, TR-FRET) (UniProt P08637). The assay is described as above.
Sequence of FcγRIIIaV158 (on cells bearing the labeled receptor, TR-FRET) (P08637 17-254 F176V): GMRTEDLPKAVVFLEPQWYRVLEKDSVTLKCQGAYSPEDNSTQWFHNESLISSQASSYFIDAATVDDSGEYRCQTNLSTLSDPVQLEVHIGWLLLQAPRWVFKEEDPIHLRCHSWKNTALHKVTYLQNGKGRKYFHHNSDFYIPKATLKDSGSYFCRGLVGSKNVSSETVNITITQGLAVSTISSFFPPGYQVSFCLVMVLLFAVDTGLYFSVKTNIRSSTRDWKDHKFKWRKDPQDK
In assay [3] the target is FcγRIIb (on cells bearing the labeled receptor, TR-FRET) (UniProt P31994). The assay is described as above.
Sequence of FcγRIIb (on cells bearing the labeled receptor, TR-FRET) (P31994 43-310 limits assumed): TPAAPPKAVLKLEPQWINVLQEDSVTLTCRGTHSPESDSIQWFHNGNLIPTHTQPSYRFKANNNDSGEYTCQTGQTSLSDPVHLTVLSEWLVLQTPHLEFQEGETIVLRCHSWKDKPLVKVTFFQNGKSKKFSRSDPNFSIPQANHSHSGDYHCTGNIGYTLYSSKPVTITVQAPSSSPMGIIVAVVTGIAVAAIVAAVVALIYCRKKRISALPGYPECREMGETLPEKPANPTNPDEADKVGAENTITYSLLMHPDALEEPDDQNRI
The target in assay [4] is human recombinant CD64 (Fc gamma receptor I), R&D Systems (human) (UniProt P12314). The experiment in a line: SPR (Biacore T200), construct captured on Protein A, soluble CD64 as analyte.
Sequence of human recombinant CD64 (Fc gamma receptor I), R&D Systems (human) (P12314 16-288 limits assumed): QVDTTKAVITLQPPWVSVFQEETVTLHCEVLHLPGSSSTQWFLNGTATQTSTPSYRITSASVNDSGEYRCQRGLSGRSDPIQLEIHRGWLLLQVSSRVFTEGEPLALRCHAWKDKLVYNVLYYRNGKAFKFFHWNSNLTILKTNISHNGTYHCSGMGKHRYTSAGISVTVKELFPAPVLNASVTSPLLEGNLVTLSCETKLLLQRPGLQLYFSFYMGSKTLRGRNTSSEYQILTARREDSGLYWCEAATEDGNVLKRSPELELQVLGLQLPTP

Sequence of FcγRIIaH131 (cell surface CD32a, cells bearing the labeled receptor, TR-FRET) (P12318 34-317): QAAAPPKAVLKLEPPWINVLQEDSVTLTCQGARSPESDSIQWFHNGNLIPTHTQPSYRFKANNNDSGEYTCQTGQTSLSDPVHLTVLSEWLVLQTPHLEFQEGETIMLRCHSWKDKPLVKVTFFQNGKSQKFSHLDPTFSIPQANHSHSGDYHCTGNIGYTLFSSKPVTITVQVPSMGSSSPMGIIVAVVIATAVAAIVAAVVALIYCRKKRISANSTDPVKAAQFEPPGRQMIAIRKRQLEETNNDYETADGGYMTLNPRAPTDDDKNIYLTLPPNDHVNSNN

Regarding “anti-CD20 mAb (CDRs from Gazyva (obinutuzumab)) (antibody)”, the IC50 in assay [1] amounted to 1270 nM; in assay [2], 428 nM; in assay [3], 3.29 µM. Moreover, the CD64 Valency by SPR in assay [4] was found to be 1.5.

For the origin of these results see patent US20210269546A1.
